In PMC10705692, “Structural dynamics of GluK2 kainate receptors in apo and partial agonist bound states” (Research Square, 2023):

Biological target: the molecule itself
Assay: cryo-EM structure; purified GluK2 EM in DDM micelles without ligand (apo; residual glutamate washed out on Strep-Tactin), 50 mM Tris-Cl pH 8.0, 150 mM NaCl, 1 mM DDM, ~4 mg/ml; single-particle cryo-EM, C2 imposed, 3.0 Å

B1: full-length rat GluK2 KAR, cryo-EM construct (GluK2 EM) (receptor, UniProt P42260 32-908, looked up)
chain: TTHVLRFGGIFEYVESGPMGAEELAFRFAVNTINRNRTLLPNTTLTYDTQKINLYDSFEASKKACDQLSLGVAAIFGPSHSSSANAVQSICNALGVPHIQTRWKHQVSDNKDSFYVSLYPDFSSLSRAILDLVQFFKWKTVTVVYDDSTGLIRLQELIKAPSRYNLRLKIRQLPADTKDAKPLLKEMKRGKEFHVIFDCSHEMAAGILKQALAMGMMTEYYHYIFTTLDLFALDVEPYRYSGVNMTGFRILNTENTQVSSIIEKWSMERLQAPPKPDSGLLDGFMTTDAALMYDAVHVVSVAVQQFPQMTVSSLQCNRHKPWRFGTRFMSLIKEAHWEGLTGRITFNKTNGLRTDFDLDVISLKEEGLEKIGTWDPASGLNMTESQKGKPANITDSLSNRSLIVTTILEEPYVLFKKSDKPLYGNDRFEGYCIDLLRELSTILGFTYEIRLVEDGKYGAQDDVNGQWNGMVRELIDHKADLAVAPLAITYVREKVIDFSKPFMTLGISILYRKPNGTNPGVFSFLNPLSPDIWMYVLLAYLGVSVVLFVIARFSPYEWYNPHPSNPDSDVVENNFTLLNSFWFGVGALMQQGSELMPKALSTRIVGGIWWFFTLIIISSYTANLAAFLTVERMESPIDSADDLAKQTKIEYGAVEDGATMTFFKKSKISTYDKMWAFMSSRRQSVLVKSNEEGIQRVLTSDYAFLMESTTIEFVTQRNCNLTQIGGLIDSKGYGVGTPMGSPYRDKITIAILQLQEEGKLHMMKEKWWRGNGCPEEESKEASALGVQNIGGIFIVLAAGLVLSVFVAVGEFLYKSKKNAQLEKRSFCSAMVEELRMSLKCQRRLKHKPQAPVIVKTEEVINMHTFNDRRLPGKETMA
modifications: N-glycosylation at Asn 67, 73, 275, 378, 412, 423, 430, 546 and 751 (LC-MS/MS of the purified protein)
notes: Glutamate receptor ionotropic, kainate 2 (GluK2), rat, full length; RNA-edited at position 567 (I to V), with C576V and C595S; followed by a human rhinovirus 3C protease site and a Twin-Strep tag at the C-terminus; Homotetramer (subunits A-D); No cleavage of the 3C site is described; also called homomeric rat GluK2; GRIK2_RAT; source: Sf9 insect cells (baculovirus, EarlyBac), solubilised in DDM, …
- stoichiometry N: 4
